In patent US20230226096A1 (Orna Therapeutics, Inc., priority 2020, published 2023):

B1: Theiler's disease-associated virus (nucleic acid)
DNA: TGATACCGTGTCCCGGTACGACCTCGCGCGTCCCCAAGCTCGCCCTGAGGGGGGAGCGTAAGGGCGCGTAGTGGGGTAGCCCCCCAAACCGAGCCACCCTAGTGAGTGACTTTAGAATGGTTAGGGAGACTACCGCCTTCGCTGTTTGGGGACCTAATGATCCGCGTGCCAGGGTTCTTCGGGTAAATCCCGGCGCGGTGTTTTGGGTTCAGGGCAGTAGGGGCAGACGGGCCAGCAGTCGCTGGTTCCTGGTACCACCACCCTATCCGGACGACCTCCCTCACGAAAGGTCGCCACGGTCTGTGGCTCGACGACGCCTATAATTCAGTCCGAGGGGCGCAGCCCTCGTTAAACTTAGGCAAGGTTCCTCGCCATTGATTTGGCCAGGGGTTTAAGTGAACGCCGCCCTTTTAATGTTTAATAGGGTTCTTTCCCGGCGGGTTGACAAACACTTCCCTGGGCTCTTCGTTGGCCTCGGTTCCTTGATGCTTCGGCACCCATGAGCGCACAGGGGGGGGACCCTGCGACAGTCCGCCAAGAGGAAAATCCTTCGGGTGACCTCGTGCGCAACCCAATCCCTTCTTCTTCCACATGGCGTGTCTGTGGTGCATGCTGTG
B2: Rosavirus 2 GA7403 (nucleic acid, listed as Rosavirus sp.)
DNA: CCAGGCATGGCGTTAAACATGCATTCCCTTCCCCTAGTAACCTCCCTTCGCCCCTTCCCCACGTTGTACCCCCTCCGAGATGGCTGCTAAGGCGCTTGCTGCTACAGCAGTCTCGTGTTTCGGGTGTTATAAGTGCTTTCTTTTCCACTCCACTCCCTGCCTATGGGGAGCGGAACGGCCTTGTCTCGGTCGTTGCTTCTTGCAGATCTTCACCCCTCCAGGCTTTCTGGACTCGCCAGGGGTGGAGTAGTAGGCGCACTGTCTAAGTGAAGGTAGCAGTGTTGTTGGCGAAGAGTTGTGGACCTACTTTGAGTTTGTAGCGATCATCCAGAGCTAGCGGATCTCCCCACGCGGTAACGCGTGCCTCTAGGCCCAAAAGGCACGGTGTTCACAGCACCCTTTGGATGGCGGGGGTGCCCCCCTCCGCACTTAAAGTAGAAAAACAGCTTAGTAGTCAAATAACATGGCTTTCCTCAAGCATTCAGTGCTACATGGGACTGAAGGATGCCCAGAAGGTACCCGCAGGCAACGATAAGCTCACTGTGGATCTGATCTGGGGCCCTGGGCCAGGTGCTATACACCTGGTTAAAACCAAATCTGGTAGTCAGGGTTAAAAAACGTCTAAGTCCCACCCCCCCGGGGACGGGGGGTTCCCTTAAACCCTCAACTGACACC
B3: Bussuquara virus (nucleic acid)
DNA: AGTATTTCTTCTGCGTGAGACCATTGCGACAGTTCGTACCGGTGAGTTTTGACTTAACGCAGTGAGAAAAGTTTTCGAGGAAAGACGAGAAGCGAATTCTCTGA
modifications: chemistry not fully specified; the letters are possibly those of the target site
B4: Yokose virus (nucleic acid, listed as Yokose virus)
DNA: AGTAAATTTTGCGTGCTAGTCGCTGAGCGTCAGACCGCAAAGTGAGTTTTTAGTGATCTAAAGTGAGGAGTTATTCTTACTGTCATCAAACACTACAAATAAACACGTTGAAATTATTTCCGGAAGAACAACTGTCCGGAATCAAAGACG
B5: Culex theileri flavivirus (nucleic acid, listed as Flavivirus sp.)
DNA: ATATAAATCCCAGTTTGGTTAAACCTATTTCAAGGCTTAAGTTGTTTATTATTTTATCGCCGCTCGTGACTATAAAGTTGCCTAGCGGAGAGAGATAAAGAAGAAGGAGTTCAAGGCTCAGGGCAGGGCGCAAGTTCCCTGGTCCCTAGGCCGCTCGCAGGAAGGAGGAGTGAAGAAGAAGAAAGAGAAGGAGAGGACCACCGCCGAAAGAAGGCAGGTGCCTCACAAGAGGGCCAACCAGCGTGTTGGACCAGTGGCCAACGCCGGACGGCGTGGTGGCCTGCTGGGACGCCTGGGGATTGGATGGAGTGCCTTCCTACAGGAAGACATCGTTCAAGCCATC
B6: Rodent pegivirus (nucleic acid, listed as Pegivirus sp.)
DNA: GGACTTCGGTCCCCCTGTTACTCTGCGAGCCACCGCAGAGCCAGGGTTGGTACGCCCGAGGTGTTAGACCCCGGCCGAAAGCTCCTAACCATGGGGTTAGTAGGACGTGGTAAATGCCACTGAGGGGTTGGAGAGCTGGTAGAGCGAGTAAGTCGGCGTAAGGCCCGAGTACGGGCCTCCCAGCCCGGGTCAGCCTAAACCTGGCTGTGATACCCGGTGCATGGAGGGCGTGTCCCAACGCTCGATCGCTGTAGGGTGGGTCCCTGCAGTTGGGTGTGGCTACCCTGCTCGTACTGCTTGATAGAGTCCCGGCGGACGGACCAGCTCTCGTCAGTCCGTGGAGTTGCAC
B7: Hepacivirus B (nucleic acid)
DNA: ACCACAAACACTCCAGTTTGTTACACTCCGCTAGGAATGCTCCTGGAGCACCCCCCCTAGCAGGGCGTGGGGGATTTCCCCTGCCCGTCTGCAGAAGGGTGGAGCCAACCACCTTAGTATGTAGGCGGCGGGACTCATGACGCTCGCGTGATGACAAGCGCCAAGCTTGACTTGGATGGCCCTGATGGGCGTTCATGGGTTCGGTGGTGGTGGCGCTTTAGGCAGCCTCCACGCCCACCACCTCCCAGATAGAGCGGCGGCACTGTAGGGAAGACCGGGGACCGGTCACTACCAAGGACGCAGACCTCTTTTTGAGTATCACGCCTCCGGAAGTAGTTGGGCAAGCCCACCTATATGTGTTGGGATGGTTGGGGTTAGCCATCCATACCGTACTGCCTGATAGGGTCCTTGCGAGGGGATCTGGGAGTCTCGTAGACCGTAGCAC
modifications: Hepacivirus B
B8: Equine hepacivirus (nucleic acid, listed as Hepacivirus sp.)
DNA: ACCTCCGTGCTATGCACGGTGCGTTGTCAGCGTTTTGCGCTTGCATGCGCTACACGCGTCGTCCAACGCGGAGGGATTCTTCCACATTACCATGTGTCACTCCCCCTATGGAGGGTTCCACCCCGCCCACACGGAAATAGGTTAACCATACCTATAGTACGGGTGAGCGGGTCCTCCTAGGGCCCCCCCGGCAGGTCGAGGGAGCTGAAATTCGTGAATCCGTGAGTACACGGAAATCGCGGCTTGAACGTCATACGTGACCTTCGGAGCCGAAATTTGGGCGTGCCCCACGAAGGAAGGCGGGGGCGGTGTTGGGCCGCCGCCCCCTTTATCCCACGGTCTGATAGGATGCTTGCGAGGGCACCTGCCGGTCTCGTAGACCATAGGAC
B9: Rosavirus C NFSM6F (nucleic acid)
DNA: CAGGGAGATCTCCATGAATAATCTTTTCCACCCTCTTTAGCGTCTATGCTATTGAGGACGGGTTGGAGCCCCGTTGACCCAGCGTCAGAGTGTGTCGGTAGCAGGCTTTCTGCTCTCGCCCCATGCCGGCCACACCTCCCATTAGTGATGTGAAGGTTGTAAGTTACATGTGAAAAGGTTTCTAATAATTGAGCTGAATGTAGCGATTACCTAAGGTGAGCGGATTCCCCCACGTGGTAACACGTGCCTCTCAGGCCAAAAGCCAAGGTGTTAAAAGCACCCCTTAGGTAGGCCACTACCCCGTGGCCTCAGTTCTCTTAGAAGATTCACTTAGTAGTGTGTGCACTGGCAACTCTTAAGCAGAGCTAGTGAGTGGGCTAAGGATGCCCTGAAGGTACCCGCAGGTAACGTTAAGACACTGTGGATCTGATCAGGGGCTCGAGTGCTGAAGCTTTACAGAGGTAGCTCGAGTTAAAAAACGTCTATGCCCCTCCCCCACGGGAGTGGGGGTTCCCCCACACCAATTTTAGATTGCACT
modifications: Rosavirus C
B10: Zika Virus (nucleic acid, listed as Zika virus)
DNA: AGTTGTTGATCTGTGTGAGTCAGACTGCGACAGTTCGAGTCTGAAGCGAGAGCTAACAACAGTATCAACAGGTTTAATTTGGATTTGGAAACGAGAGTTTCTGGTC
modifications: chemistry not fully specified; the letters are possibly those of the target site
B11: Hepacivirus I (nucleic acid)
DNA: CAGGGTTTCGACCCTGGCCCGGATACCTATCGCCTTACGCCGAAAGGTAACGAGTAGGAGTCGGGTCCCCAGGCCCTTACCGCCACCAAGCCAGGTGGGGAGGTATGGGAGCCGGGGGGTGCAGCTGGTAGCTCCATGGGGGACGCCCCGTGAGCGGATGCTGCATCGATACCGGGTTAGCTCTCTGGGAGAGCGGCACTTGACACCACGAATCCGGGAACCGGACAATCGCCGGCGTGGGACGCGTTGCCTCCGTGGCCGAGCAATTTGGCATGCCCGTGGTGAAGAGTGATGGTGGGGGGGGGCCCCCCTTCCAGTACCGTACTGCCTGATAGGGTCTTGCCTCAAGCCCAGAGAGTCGAGGCTGAAAACCGCCATC
modifications: Hepacivirus I
B12: Equine Pegivirus 1 (nucleic acid, listed as Pegivirus sp.)
DNA: AGAATGGGGAGTTAACTCCTGGCACTGGCCCGAAGCATGAACTGATCGCGGTGGCAGGGTTCTTCGGGTAAATCCCGGCCGCGTGTTGTGATTGTGTTAGGGCAGGTGACAGTCGGCAGGGTCGACCCCCTGCTTCAGGACCACTGTCTTCCTGGACGACCGTTGCTGAAAAAGGGCCGCCACGGTCTGTAGCTCGCCGACGCTTCTAATTCAGGCCGGAGGACCACGCTCCGTAATCGAGCCCAAGTACTCAAACCCCAGCACCCCTGGGTCACGCCCTACGCCGCCCTTTTAACGCTTCGGCTAATAGGGTCTATCCGGCGGGTTGACAAAGGGCGCAGGGTTACCTGGTACTACGAGCTTGGGTGTCCCTGGGAGTAATCCCAGGGTGCC
B13: GB virus C/Hepatitis G virus (nucleic acid)
DNA: CCCCCGGCACTGGGTGCAAGCCCCAGAAACCGACGCCTATCTAAGTAGACGCAATGACTCGGCGCCGACTCGGCGACCGGCCAAAAGGTGGTGGATGGGTGATGACAGGGTTGGTAGGTCGTAAATCCCGGTCACCTTGGTAGCCACTATAGGTGGGTCTTAAGAGAAGGTTAAGATTCCTCTTGTGCCTGCGGCGAGACCGCGCACGGTCCACAGGTGTTGGCCCTACCGGTGGGAATAAGGGCCCGACGTCAGGCTCGTCGTTAAACCGAGCCCGTTACCCACCTGGGCAAACGACGCCCACGTACGGTCCACGTCGCCCTTCAATGTCTCTCTTGACCAATAGGCGTAGCCGGCGAGTTGACAAGGACCAGTGGGGGCCGGGGGCTTGGAGAGGGACTCCAAGTCCCGCCCTTCCCGGTGGGCCGGGAAATGC

tested on: HEK293 cells; assay type: cell-based, human; conditions: luminescence from secreted Gluc in supernatant 24 hours after transfection of HEK293 cells; circular RNA encoding Gluc with the named IRES (UTR truncated to 675 nt)

| Molecule | Expression |
| --- | --- |
| B1 | 7.84E+04 |
| B2 | 5.05E+06 |
| B3 | 8.20E+04 |
| B4 | 8.55E+04 |
| B5 | 8.52E+04 |
| B6 | 1.79E+05 |
| B7 | 8.84E+04 |
| B8 | 8.40E+04 |
| B9 | 6.84E+05 |
| B10 | 8.61E+04 |
| B11 | 7.50E+04 |
| B12 | 8.80E+04 |
| B13 | 1.36E+05 |
